From paper PMC5620733, “Aptamer-Based Single-Step Assay by the Fluorescence Enhancement on Electroless Plated Nano Au Substrate” come the findings set out here.

In the data set the target is thrombin (UniProt P00734;P00734 328-363;364-622). Nature of the data set: fluorescence decrease on chitosan-coated Au nanostructure (aptamer release); 10 ug/mL thrombin, 15 min; smaller signal change than 15mer, ascribed to retention on chitosan; 20 mM Tris-HCl pH 7.4, 20 mM MgCl2; chitosan-coated (1000 Da) Au nanostructure blocked with 1% BSA; 15 min; temperature not stated.

B1: TBA 21mer (5'-extended) (ssDNA)
DNA: CACTGTGGTTGGTGTGGTTGG
Consider B1, for which the binding result was “binds”.
